The chains are these.
T1: hiR2-FL-G587A-T7 (human, UniProt Q6PJF5 1-856)
T1 sequence: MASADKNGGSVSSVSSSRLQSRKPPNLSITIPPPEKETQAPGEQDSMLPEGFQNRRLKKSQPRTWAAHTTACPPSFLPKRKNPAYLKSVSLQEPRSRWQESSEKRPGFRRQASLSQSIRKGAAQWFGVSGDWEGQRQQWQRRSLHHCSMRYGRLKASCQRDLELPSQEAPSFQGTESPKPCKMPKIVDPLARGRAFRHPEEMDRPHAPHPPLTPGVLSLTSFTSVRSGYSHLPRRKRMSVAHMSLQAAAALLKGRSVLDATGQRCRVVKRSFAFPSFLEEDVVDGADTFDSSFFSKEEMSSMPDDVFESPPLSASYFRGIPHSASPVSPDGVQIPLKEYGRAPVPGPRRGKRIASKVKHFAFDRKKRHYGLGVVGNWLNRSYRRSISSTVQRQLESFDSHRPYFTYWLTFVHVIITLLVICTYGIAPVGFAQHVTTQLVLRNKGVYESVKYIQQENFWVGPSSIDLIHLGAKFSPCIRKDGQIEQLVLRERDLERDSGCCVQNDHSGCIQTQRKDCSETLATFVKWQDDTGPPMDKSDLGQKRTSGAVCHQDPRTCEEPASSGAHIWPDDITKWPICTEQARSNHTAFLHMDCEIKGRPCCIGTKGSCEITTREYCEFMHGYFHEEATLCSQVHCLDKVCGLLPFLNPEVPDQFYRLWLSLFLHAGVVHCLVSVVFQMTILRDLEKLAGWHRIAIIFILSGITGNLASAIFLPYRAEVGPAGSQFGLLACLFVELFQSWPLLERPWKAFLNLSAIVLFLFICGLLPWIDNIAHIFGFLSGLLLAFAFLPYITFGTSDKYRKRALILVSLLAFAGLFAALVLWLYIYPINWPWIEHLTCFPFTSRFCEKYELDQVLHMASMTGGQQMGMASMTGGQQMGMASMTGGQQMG

T2: hiR2-FL-L539A-T7 (human, UniProt Q6PJF5 1-856)
T2 construct: on MEF-DKO cells
T2 sequence: T1 sequence with L539A, A587G

B1: antibody 44 (antibody, V domains shown)
VH: QVTLKESGPGILQPSQTLSLTCSFSGFSLSTFGMGVGWIRQPSEKGLEWLAHIWWDDDKYYNPALKSRLTISKDTSKNQIFLKITNVDTAETATYYCSRIGNYGSNYWYFDVWGTGTTVTVSS
VL: QIVLTQSPAVMSASPGEKVTMTCTASSSVYYMYWYQQTPGSSPRLLIYDTSNLASGVPVRFSGSGSGTSYSLTISRMEAEDAATYYCQQWNTYPLTFGAGTKLELK
notes: mouse IgG, kappa light chain; also called clone #44; purified antibody 44
B2: antibody 43 (antibody, V domains shown)
VH: B1 VH with T3A, P42S, E44G, H52N, T75A, I80A, T85A, E91D, S98A
VL: QIVLTQSPAIMSASPGERVTMTCSANSRISYMYWYQQKPGSSPRLLIYDTSNLASGVPVRFSGSGSGTSYSLTISRMEAEDAATYNCQQWSSYPLTFGAGTKLELK
notes: mouse IgG, kappa light chain; also called clone #43; purified antibody 43
B3: antibody 48 (antibody, V domains shown)
VH: QVQLQQSGTELVRPGTSVKVSCKASGYAFTNYLIEWVKQRPGQGLEWIGVINPGSGFTKYNEKFKGKATLTADKSSSTVYMHLSSLTSEDSAVYFCARGLYRAMDYWGQGTSVTVSS
VL: DIQMTQSPASQSASLGESVTITCLASQTIATWLAWYQQKPGKSPQLLIYGATTLADGVPSRFSGGGSGTKFSFKISSLQAEDFVSYYCQQLYSTPYTFGGGTKLEIK
notes: mouse IgG, kappa light chain; also called clone #48; purified antibody 48
B4: antibody 50 (antibody, V domains shown)
VH: B3 VH with T9A, T16A, T30S, V79A, H82Q
VL: B3 VL with A30G, G50A, T52A, T53S, S85N, L91I
notes: mouse IgG, kappa light chain; also called clone #50; purified antibody 50
B5: antibody 5 (antibody, V domains shown)
VH: B1 VH with E44G, D58E, P63S, D74A, I80A, T85A, E91D, S98A, G101S, D111N
VL: QVVLTQSPALMSASPGEKVTMTCSAGSSVSCMYWYQQKPGSSPRVLIYDTSNLASGVPARFTGSGSGTSYSLTISRMEAEDAASYYCQQWNSYPLTFGAGTKLELK
notes: mouse IgG, kappa light chain; also called clone #5; purified antibody 5
B6: antibody 42 (antibody, V domains shown)
VH: B1 VH with F24L, M34R, E44G, D58E, I80V, K83R, T85A, E91D, S98A, G101Q
VL: B2 VL with Q1L, R18K, S24G, N26T, Y33F, L45V, M77V, A82V, N86Y, S91N
notes: mouse IgG, kappa light chain; also called clone #42; purified antibody 42
B7: antibody 22 (antibody, V domains shown)
VH: B1 VH with E44G, D58E, P63S, D74A, I80V, T85A, E91D, S98A, G101S, D111N
VL: B5 VL with C31Y, S84T
notes: mouse IgG, kappa light chain; also called clone #22; purified antibody 22
B8: antibody 34 (antibody, V domains shown)
VH: QVTLKESGPGILQPSQTLSLTCSFSGFSLSTFSLGVGWIRQSSGKGLEWLAHIWWDDEKYYNPALKSRLTISKDTSKNQVFLKIANVDAADTATYYCARAYYSKSYYALDYWGQGTSVTVSS
VL: DIQMTQSPSSLSASLGERVSLTCRASQEISGYLSWLQQKPDGTIKRLIYAASTLDSGVPKRFSGSRSGSDYSLAISSLESEDFADYYCLQYANFPFTFGSGTKLEIK
notes: mouse IgG, kappa light chain; also called clone #34; purified antibody 34

Changes are numbered by the printed parent chain.

In one experiment the target is T1, hiR2-FL-G587A-T7. The experiment can be described thus: FACS on MEF-DKO cells expressing the variant, 3 µg/ml antibody. In outline: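 Two incubations on ice, each 1 hour: test antibody (3 μg/ml) or FACS buffer only, then PE anti-mouse F(ab′)2 at 1:100 in the dark. Centrifugation and washes used 4° C; staining quantified on a flow cytometer.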
For B1, the “loss of binding vs wild type” value is no less than 30%.

B2: the “loss of binding vs wild type” value was no less than 30%.

As to B3, the “loss of binding vs wild type” value was no less than 30%.

With B4, the “loss of binding vs wild type” value was no less than 60%.

A further experiment deals with T2, hiR2-FL-L539A-T7. The experiment in a line: FACS on MEF-DKO cells.
B5: the binding result is recorded as “no binding (tested: 3 µg/ml)”.

Take B1: the binding result is listed as “no binding (tested: 3 µg/ml)”.

As for B6, the binding result is reported as “no binding (tested: 3 µg/ml)”.

For the molecule B2, the binding result is listed as “no binding (tested: 3 µg/ml)”.

As for B7, the binding result is listed as “no binding (tested: 3 µg/ml)”.

In the case of B8, the binding result is given as “no binding (tested: 3 µg/ml)”.

(Values after US20240287172A1 (SCIRHOM, published 2024).)
